Here are results for 9 sequences from the Immune Epitope Database (IEDB).

One test concerns the target HLA-B*08:03. The test can be described thus: IEDB peptide-MHC binding, purified MHC/direct/fluorescence; filed as Kd, often an IC50 or EC50 that approximates it; ≥ and ≤ were set here for values at or beyond the usual limits of such assays. Conditions: source organism: Giardia lamblia ATCC 50803.
The next test deals with HLA-B*40:01. Described as above.
Another test concerns the target HLA-B*57:01. The test is described as above.
Test [1] has as its target HLA-A*11:01. The description is as above.
Test [2] addresses HLA-A*01:01. The description is as above.
A further test addresses HLA-B*48:01. The description is as above.
The target in another test is HLA-A*31:01. Described as above.
Another test deals with HLA-A*03:01. The description is as above.
The next test addresses HLA-B*15:17. The description is as above.
The next test deals with HLA-A*26:03. The description is as above.
Another test has as its target HLA-A*68:02. The description is as above.
The target of another test is HLA-A*02:01. The description is as above.
The target in the next test is HLA-B*58:01. Described as above.
Test [3] has as its target HLA-B*27:05. The test is described as above.
The next test addresses HLA-B*15:01. Described as above.
The target of the next test is HLA-B*18:01. The description is as above.
In a further test the target is HLA-B*46:01. The test is described as above.
The target of the next test is HLA-A*69:01. Described as above.
In test [4] the target is HLA-B*07:02. The test can be described thus: IEDB peptide-MHC binding, purified MHC/competitive/fluorescence; filed as Kd, often an IC50 or EC50 that approximates it; ≥ and ≤ were set here for values at or beyond the usual limits of such assays. To be noted: source organism: Giardia lamblia ATCC 50803.
Another test concerns the target HLA-B*08:01. Described as above.
For test [5], the target named is HLA-B*27:05. The test can be described thus: IEDB peptide-MHC binding, purified MHC/competitive/fluorescence; ≥ and ≤ were set here for values at or beyond the usual limits of such assays.
Test [6] concerns the target HLA-B*07:02. The test can be described thus: IEDB peptide-MHC binding, purified MHC/direct/fluorescence; filed as Kd, often an IC50 or EC50 that approximates it; ≥ and ≤ were set here for values at or beyond the usual limits of such assays. Conditions: source organism: Bacillus anthracis.
In another test the target is HLA-B*35:01. The description is as above. To be noted: source organism: Bacillus anthracis str. A0389.
The next test has as its target HLA-A*26:01. Described as above.
Test [7] deals with HLA-B*39:01. The test is described as above. Conditions: source organism: Bacillus anthracis str. A0389.
Another test addresses HLA-B*08:02. Described as above.
A further test addresses HLA-B*15:02. The description is as above. Conditions: source organism: Bacillus anthracis str. A0389.
The target of another test is HLA-A*30:01. The test can be described thus: IEDB peptide-MHC binding, purified MHC/competitive/fluorescence; filed as Kd, often an IC50 or EC50 that approximates it; ≥ and ≤ were set here for values at or beyond the usual limits of such assays. Conditions: source organism: Bacillus anthracis str. A0389.
For test [8], the target named is HLA-A*11:01. Described as above. To be noted: source organism: Bacillus anthracis str. A0389.
For test [9], the target named is HLA-A*01:01. Kind of test: IEDB peptide-MHC binding, purified MHC/competitive/fluorescence; ≥ and ≤ were set here for values at or beyond the usual limits of such assays.
A further test concerns the target HLA-B*51:01. The test can be described thus: IEDB peptide-MHC binding, purified MHC/direct/fluorescence; filed as Kd, often an IC50 or EC50 that approximates it; ≥ and ≤ were set here for values at or beyond the usual limits of such assays. Conditions: source organism: Mycobacterium tuberculosis.
Test [10] deals with HLA-B*39:01. The test can be described thus: IEDB peptide-MHC binding, purified MHC/competitive/fluorescence; filed as Kd, often an IC50 or EC50 that approximates it; ≥ and ≤ were set here for values at or beyond the usual limits of such assays.
Another test deals with HLA-B*15:09. The test is described as above. Conditions: source organism: Corynebacterium efficiens YS-314.
A further test deals with HLA-B*38:01. The test can be described thus: IEDB peptide-MHC binding, purified MHC/direct/fluorescence; filed as Kd, often an IC50 or EC50 that approximates it; ≥ and ≤ were set here for values at or beyond the usual limits of such assays. To be noted: source organism: Mycobacterium tuberculosis str. Haarlem.
In a further test the target is HLA-C*07:02. The test is described as above. Conditions: source organism: Homo sapiens.
The next test has as its target HLA-A*29:02. The test can be described thus: IEDB peptide-MHC binding, purified MHC/competitive/fluorescence; filed as Kd, often an IC50 or EC50 that approximates it; ≥ and ≤ were set here for values at or beyond the usual limits of such assays. To be noted: source organism: Homo sapiens.
For test [11], the target named is HLA-A*01:01. The test is described as above. Conditions: source organism: Homo sapiens.
For the next test, the target named is HLA-A*80:01. The description is as above. To be noted: source organism: Homo sapiens.
The mark [12] stands for this setting: source organism: Giardia lamblia ATCC 50803.
[13] abbreviates: source organism: Bacillus anthracis.
The mark [14] stands for this setting: source organism: Bacillus anthracis str. A0389.
Setting [15] is: source organism: Mycobacterium tuberculosis.
Setting [16] is: source organism: Mycobacterium tuberculosis F11.
Setting [17] is: source organism: Mycobacterium tuberculosis variant bovis BCG str. Pasteur 1173P2.

One may read the Kd as the free concentration of one partner at which half of the binding sites on the other are occupied at equilibrium, for simple one-to-one binding. The low end stands for tighter binding, the high end for weaker binding. On to EIRHRSGIQ, for which the Kd with HLA-B*08:03 is at least 20 µM; in the test with HLA-B*40:01 (setting [12]), at least 20 µM; with HLA-B*57:01 (setting [12]), at least 20 µM; with HLA-A*11:01 [1] (setting [12]) it was 6.39 µM; with HLA-A*01:01 [2] (setting [12]), at least 20 µM; with HLA-B*48:01 (setting [12]) it was at least 20 µM. For the same sequence, the Kd with HLA-A*31:01 (setting [12]) is at least 20 µM; with HLA-A*03:01 (setting [12]), 2 µM; in the test with HLA-B*15:17 (setting [12]), at least 20 µM; with HLA-A*26:03 (setting [12]) it was at least 20 µM; in the test with HLA-A*68:02 (setting [12]), at least 20 µM; in the test with HLA-A*02:01 (setting [12]), at least 20 µM. Moreover, the equilibrium dissociation constant (Kd) with HLA-B*58:01 (setting [12]), with HLA-B*27:05 [3] (setting [12]), in the test with HLA-B*15:01 (setting [12]), in the test with HLA-B*18:01 (setting [12]), in the test with HLA-B*46:01 (setting [12]) and with HLA-A*69:01 (setting [12]) was at least 20 µM in each case. Also, the Kd with HLA-B*07:02 [4] turned out to be 0.41 µM; in the test with HLA-B*08:01 (setting [12]), 9 µM.

Broadly, the IC50 is the concentration needed to halve the response being measured. Higher therefore signals weaker potency. In the case of GRATICGKY, the IC50 with HLA-B*27:05 [5] (source organism: hepatitis C virus genotype 1a) stood at 0.122 µM.

For KLYVNGKAY, the Kd with HLA-B*07:02 [6] is at least 20 µM; in the test with HLA-B*57:01 (setting [13]), 0.507 µM; with HLA-B*35:01, 1.63 µM; with HLA-A*26:01 (setting [14]), at least 20 µM; in the test with HLA-A*01:01 [2] (setting [13]), at least 20 µM; with HLA-B*39:01 [7], at least 20 µM. The Kd is at least 20 µM with HLA-B*48:01 (setting [13]); at least 20 µM in the test with HLA-B*08:02 (setting [14]); at least 20 µM with HLA-A*31:01 (setting [13]); 0.032 µM with HLA-A*03:01 (setting [13]); 0.0024 µM in the test with HLA-B*15:17 (setting [13]); at least 20 µM with HLA-A*26:03 (setting [14]). The Kd with HLA-A*68:02 (setting [13]) was at least 20 µM; with HLA-A*02:01 (setting [13]), at least 20 µM; with HLA-B*58:01 (setting [13]), at least 20 µM; with HLA-B*27:05 [3] (setting [13]) it was at least 20 µM; with HLA-B*15:01 (setting [13]) it was 0.298 µM; with HLA-B*46:01 (setting [13]), 6 µM. In addition, the Kd in the test with HLA-A*69:01 (setting [13]) is at least 20 µM; with HLA-B*15:02 it was 0.117 µM; with HLA-A*30:01 it was 0.4 µM; with HLA-A*11:01 [8] it was at least 20 µM.

In turn, LTDSLSSQM gave an IC50 with HLA-A*01:01 [9] (source organism: Vaccinia virus Copenhagen) of 2.54 µM.

As for MPRLSRNAA, the Kd in the test with HLA-B*40:01 (setting [15]), with HLA-B*57:01 (setting [15]), with HLA-A*26:01 (setting [16]), with HLA-A*11:01 [1] (setting [15]), with HLA-A*01:01 [2] (setting [15]) and in the test with HLA-B*48:01 (setting [15]) was at least 20 µM in each case. The Kd was at least 20 µM with HLA-B*08:02 (setting [16]); at least 20 µM with HLA-A*31:01 (setting [15]); at least 20 µM in the test with HLA-A*03:01 (setting [15]); at least 20 µM in the test with HLA-B*15:17 (setting [15]); at least 20 µM with HLA-A*02:01 (setting [15]); 0.655 µM with HLA-B*51:01. Moreover, the Kd with HLA-B*58:01 (setting [15]) is at least 20 µM; with HLA-B*27:05 [3] (setting [15]), at least 20 µM; with HLA-B*15:01 (setting [15]), at least 20 µM; in the test with HLA-B*18:01 (setting [15]) it was 8.28 µM; with HLA-B*46:01 (setting [15]), at least 20 µM; with HLA-A*69:01 (setting [15]), at least 20 µM. Also, the figures for the Kd with HLA-B*39:01 [10] (source organism: Corynebacterium efficiens YS-314) and with HLA-B*15:09 were 0.25 µM and at least 20 µM, respectively.

QSEHSFEEM yielded an IC50 in the test with HLA-A*01:01 [9] (source organism: Zaire ebolavirus) of 39.6 µM.

The sequence RLFPGLAIK yielded an IC50 in the test with HLA-B*27:05 [5] (source organism: Homo sapiens) of 0.146 µM.

Regarding RPPMVTSGL, the Kd in the test with HLA-B*40:01 (setting [15]), with HLA-B*57:01 (setting [15]), in the test with HLA-B*38:01, with HLA-A*11:01 [1] (setting [15]), with HLA-A*01:01 [2] (setting [15]) and with HLA-B*48:01 (setting [15]) was at least 20 µM throughout. Also, the Kd with HLA-A*31:01 (setting [15]), with HLA-A*03:01 (setting [15]), with HLA-B*15:17 (setting [15]), in the test with HLA-A*02:01 (setting [15]), in the test with HLA-B*51:01 and in the test with HLA-B*58:01 (setting [15]) was at least 20 µM throughout. For the same sequence, the Kd with HLA-B*27:05 [3] (setting [15]), with HLA-B*15:01 (setting [15]), in the test with HLA-B*18:01 (setting [15]), with HLA-B*46:01 (setting [15]), with HLA-A*69:01 (setting [15]) and in the test with HLA-B*39:01 [10] (setting [17]) was at least 20 µM throughout. The sequence further returned a Kd in the test with HLA-B*08:01 (setting [17]) of at least 20 µM.

In the case of YYSNKAYQY, the Kd is 0.15 µM with HLA-C*07:02, at most 0.0001 µM with HLA-A*29:02, at least 20 µM in the test with HLA-A*01:01 [11] and 0.373 µM in the test with HLA-A*80:01.
